PMC6555819, “Comprehensive study of nuclear receptor DNA binding provides a revised framework for understanding receptor specificity”

Key:
[1] = target: RXRa (Homo sapiens, UniProt P19793); assay: no ligand; PBM; 180 nM; PBS pH 7.4, 2% milk, 0.02% Triton X-100, 1 mM DTT, BSA, 0.4 mg/ml salmon testes DNA; conditions: tags: His cleaved; chain copies: 2; label: surface-attached array probe
[2] = target: RARg:RXRa (Homo sapiens, UniProt P13631;P19793 full;full); assay: no ligand; PBM; 270 nM : 90 nM RXRa; PBS pH 7.4, 2% milk, 0.02% Triton X-100, 1 mM DTT, BSA, 0.4 mg/ml salmon testes DNA; conditions: tags: His kept;His cleaved; copies: 1;1; label: surface-attached array probe
Sequence of RARg:RXRa (P13631 whole entry, chain 1 of 2): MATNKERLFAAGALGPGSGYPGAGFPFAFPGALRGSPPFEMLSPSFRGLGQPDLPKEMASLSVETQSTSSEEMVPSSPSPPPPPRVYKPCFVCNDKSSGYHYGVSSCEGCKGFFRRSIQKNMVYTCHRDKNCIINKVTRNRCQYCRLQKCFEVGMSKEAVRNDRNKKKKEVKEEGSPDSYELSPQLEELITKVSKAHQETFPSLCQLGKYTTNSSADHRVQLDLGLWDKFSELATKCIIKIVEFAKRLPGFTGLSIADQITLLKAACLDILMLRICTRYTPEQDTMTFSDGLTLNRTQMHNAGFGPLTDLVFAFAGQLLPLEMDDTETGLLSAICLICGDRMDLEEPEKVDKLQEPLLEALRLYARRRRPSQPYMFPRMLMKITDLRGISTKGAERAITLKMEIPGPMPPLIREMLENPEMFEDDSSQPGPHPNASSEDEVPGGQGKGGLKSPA
Sequence of RARg:RXRa (P19793 whole entry, chain 2 of 2): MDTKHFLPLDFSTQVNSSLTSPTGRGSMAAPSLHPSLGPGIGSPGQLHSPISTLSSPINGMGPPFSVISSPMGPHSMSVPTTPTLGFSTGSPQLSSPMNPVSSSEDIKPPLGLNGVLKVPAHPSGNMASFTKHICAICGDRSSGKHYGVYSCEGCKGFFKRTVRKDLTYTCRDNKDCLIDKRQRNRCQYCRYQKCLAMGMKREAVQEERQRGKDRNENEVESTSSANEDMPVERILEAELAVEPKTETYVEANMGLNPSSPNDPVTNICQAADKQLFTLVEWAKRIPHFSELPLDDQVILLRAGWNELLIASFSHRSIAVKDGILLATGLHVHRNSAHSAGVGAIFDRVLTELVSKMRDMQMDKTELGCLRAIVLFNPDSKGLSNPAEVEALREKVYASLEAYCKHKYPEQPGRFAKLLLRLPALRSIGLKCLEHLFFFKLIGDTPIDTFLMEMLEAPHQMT
Outline: (§1)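 The probes on custom Agilent 4×180K protein-binding microarrays were double-stranded, with 34-nt variable regions bearing direct-repeat seeds, single-nucleotide variants, half-site ablations and random human genomic background sequences. Incubation lasted 1 h with ligand-free nuclear receptor dimers in PBS pH 7.4, 2% milk, 0.02% Triton X-100, 1 mM DTT, 0.2 mg/mL BSA and 0.4 mg/ml salmon testes DNA. Antibodies against each partner (one per run) detected bound dimers, and fluorescence scans were regression-normalized. Binding z-scores take the random background probes as reference.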

[3] = target: PPARa:RXRa (Homo sapiens, UniProt Q07869;P19793 full;full); assay: as above; conditions: tags: GST kept;His cleaved; copies: 1;1; label: surface-attached array probe
Sequence of PPARa:RXRa (Q07869 whole entry, chain 1 of 2): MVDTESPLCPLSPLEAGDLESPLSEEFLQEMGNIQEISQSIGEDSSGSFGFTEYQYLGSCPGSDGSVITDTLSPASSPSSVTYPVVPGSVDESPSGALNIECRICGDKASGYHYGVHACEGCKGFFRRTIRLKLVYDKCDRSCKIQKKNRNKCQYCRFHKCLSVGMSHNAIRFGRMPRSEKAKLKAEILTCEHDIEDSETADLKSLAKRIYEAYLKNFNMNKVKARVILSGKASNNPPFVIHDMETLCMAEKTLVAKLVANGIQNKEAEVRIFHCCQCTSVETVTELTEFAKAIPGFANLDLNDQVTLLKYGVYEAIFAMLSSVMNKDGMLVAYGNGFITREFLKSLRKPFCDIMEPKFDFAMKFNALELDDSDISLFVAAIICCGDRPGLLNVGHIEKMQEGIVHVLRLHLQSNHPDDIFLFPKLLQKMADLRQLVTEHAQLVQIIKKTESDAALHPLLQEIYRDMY
Sequence of PPARa:RXRa (P19793 whole entry, chain 2 of 2): as the sequence (P19793 whole entry, chain 2 of 2) above
Outline: as §1

[4] = target: FXR:RXRa (Homo sapiens, UniProt Q96RI1;P19793 full;full); assay: as above; conditions: tags: His kept;His cleaved; copies: 1;1; label: surface-attached array probe
Sequence of FXR:RXRa (Q96RI1 whole entry, chain 1 of 2): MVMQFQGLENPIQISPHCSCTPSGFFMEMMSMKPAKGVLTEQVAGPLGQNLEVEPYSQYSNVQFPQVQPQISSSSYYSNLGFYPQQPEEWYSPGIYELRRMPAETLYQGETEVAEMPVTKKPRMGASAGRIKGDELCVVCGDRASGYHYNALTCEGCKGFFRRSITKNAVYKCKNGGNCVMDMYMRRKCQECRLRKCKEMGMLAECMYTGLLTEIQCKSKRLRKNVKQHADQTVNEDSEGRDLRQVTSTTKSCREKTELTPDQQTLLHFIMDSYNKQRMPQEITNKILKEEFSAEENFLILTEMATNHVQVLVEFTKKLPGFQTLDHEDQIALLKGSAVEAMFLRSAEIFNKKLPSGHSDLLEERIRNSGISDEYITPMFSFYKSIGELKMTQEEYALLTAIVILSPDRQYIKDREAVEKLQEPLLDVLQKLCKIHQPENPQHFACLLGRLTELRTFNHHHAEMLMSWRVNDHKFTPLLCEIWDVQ
Sequence of FXR:RXRa (P19793 whole entry, chain 2 of 2): as the sequence (P19793 whole entry, chain 2 of 2) above
Outline: as §1

Sequence of RXRa (P19793 whole entry): as the sequence (P19793 whole entry, chain 2 of 2) above

B1: NRC3_random_hg19_240_o1 (dsDNA)
DNA 1: GCGACCATCTCCACACTGCACGATGATGAGATCCTGGCGATTGACAGCGTAGAATGAAGG
DNA 2: CCTTCATTCTACGCTGTCAATCGCCAGGATCTCATCATCGTGCAGTGTGGAGATGGTCGC
binding signal [1]: 0.1 PBM z-score against 500 random probes

B2: NRC3_random_hg19_248_o1 (dsDNA)
DNA 1: GCGTGTTCTACTGTACTGCAGCTGAGCCGACACTCAGCGATTGACAGCGTAGAATGAAGG
DNA 2: CCTTCATTCTACGCTGTCAATCGCTGAGTGTCGGCTCAGCTGCAGTACAGTAGAACACGC
binding signal [2]: -0.34 PBM z-score against 500 random probes
binding signal [1]: -0.43 PBM z-score against 500 random probes

B3: NRC3_random_hg19_2_o1 (dsDNA)
DNA 1: GCGTAACAAGAACAAGGCCATACTTTCATGCATCTAGCGATTGACAGCGTAGAATGAAGG
DNA 2: CCTTCATTCTACGCTGTCAATCGCTAGATGCATGAAAGTATGGCCTTGTTCTTGTTACGC
binding signal [1]: 0.08 PBM z-score against 500 random probes

B4: NRC3_wobSeed97_DR4_T8C_o1 (dsDNA)
DNA 1: GCCAAACCAGGTCACGAAAGGTCAAAGTCGAATGACGCGATTGACAGCGTAGAATGAAGG
DNA 2: CCTTCATTCTACGCTGTCAATCGCGTCATTCGACTTTGACCTTTCGTGACCTGGTTTGGC
binding signal [2]: 8.22 PBM z-score against 500 random probes
binding signal [1]: 9.26 PBM z-score against 500 random probes

B5: NRC3_random_hg19_226_o1 (dsDNA)
DNA 1: GCCATCCCATTTCTCTTCCCAAGGGATTTGAAAGAGGCGATTGACAGCGTAGAATGAAGG
DNA 2: CCTTCATTCTACGCTGTCAATCGCCTCTTTCAAATCCCTTGGGAAGAGAAATGGGATGGC
binding signal [2]: -0.16 PBM z-score against 500 random probes
binding signal [1]: -0.08 PBM z-score against 500 random probes

B6: NRC3_random_hg19_21_o1 (dsDNA)
DNA 1: GCAACATTTCAGTATACTTTCTAGCAACTCTGGGTAGCGATTGACAGCGTAGAATGAAGG
DNA 2: CCTTCATTCTACGCTGTCAATCGCTACCCAGAGTTGCTAGAAAGTATACTGAAATGTTGC
binding signal [3]: 0.2 PBM z-score against 500 random probes
binding signal [1]: 0.34 PBM z-score against 500 random probes

B7: NRC3_wobSeed27_DR1_G22C_o1 (dsDNA)
DNA 1: GCACTCGGAGGACAAAGGTCACAGCTACGCCAGTGAGCGATTGACAGCGTAGAATGAAGG
DNA 2: CCTTCATTCTACGCTGTCAATCGCTCACTGGCGTAGCTGTGACCTTTGTCCTCCGAGTGC
binding signal [2]: 7.47 PBM z-score against 500 random probes
binding signal [1]: 8.07 PBM z-score against 500 random probes

B8: NRC3_wobSeed61_DR2_G10C_o1 (dsDNA)
DNA 1: GCCGTCCAACGTCAGCAGGTCAGTGAAAGCGACGTGGCGATTGACAGCGTAGAATGAAGG
DNA 2: CCTTCATTCTACGCTGTCAATCGCCACGTCGCTTTCACTGACCTGCTGACGTTGGACGGC
binding signal [3]: 0.49 PBM z-score against 500 random probes
binding signal [1]: 0.42 PBM z-score against 500 random probes

B9: NRC3_random_hg19_365_o1 (dsDNA)
DNA 1: GCAGTAGACACAGGGTTTCACCGTGTTGGCCAGGATGCGATTGACAGCGTAGAATGAAGG
DNA 2: CCTTCATTCTACGCTGTCAATCGCATCCTGGCCAACACGGTGAAACCCTGTGTCTACTGC
binding signal [1]: 0.03 PBM z-score against 500 random probes

B10: NRC3_random_hg19_366_o1 (dsDNA)
DNA 1: GCACTACTACTGCTGTTGAGAAACCTGCATTGTGGCGCGATTGACAGCGTAGAATGAAGG
DNA 2: CCTTCATTCTACGCTGTCAATCGCGCCACAATGCAGGTTTCTCAACAGCAGTAGTAGTGC
binding signal [1]: -0.56 PBM z-score against 500 random probes

B11: NRC3_random_hg19_95_o1 (dsDNA)
DNA 1: GCATCTTCAGTATGTTTCATTCAGTAGCTCAGTGGCGCGATTGACAGCGTAGAATGAAGG
DNA 2: CCTTCATTCTACGCTGTCAATCGCGCCACTGAGCTACTGAATGAAACATACTGAAGATGC
binding signal [3]: -0.24 PBM z-score against 500 random probes
binding signal [1]: -0.26 PBM z-score against 500 random probes

B12: NRC3_random_hg19_236_o1 (dsDNA)
DNA 1: GCGCCTAGCACTTGTGTTGACCATTCATTCAGTGCTGCGATTGACAGCGTAGAATGAAGG
DNA 2: CCTTCATTCTACGCTGTCAATCGCAGCACTGAATGAATGGTCAACACAAGTGCTAGGCGC
binding signal [1]: -0.35 PBM z-score against 500 random probes

B13: NRC3_random_hg19_292_o1 (dsDNA)
DNA 1: GCCAAGACCCTAAGGAACCACTGTGTGGGATGTCAGGCGATTGACAGCGTAGAATGAAGG
DNA 2: CCTTCATTCTACGCTGTCAATCGCCTGACATCCCACACAGTGGTTCCTTAGGGTCTTGGC
binding signal [1]: 0.44 PBM z-score against 500 random probes

B14: NRC3_random_hg19_301_o1 (dsDNA)
DNA 1: GCGAGAACAGACTAACACACACACACACACACACACGCGATTGACAGCGTAGAATGAAGG
DNA 2: CCTTCATTCTACGCTGTCAATCGCGTGTGTGTGTGTGTGTGTGTGTTAGTCTGTTCTCGC
binding signal [1]: 0.4 PBM z-score against 500 random probes

B15: NRC3_wobSeed88_DR3_o1 (dsDNA)
DNA 1: GCTAGCCTAGGTCATGCGGGCCAGTATAGTGTCGGCGCGATTGACAGCGTAGAATGAAGG
DNA 2: CCTTCATTCTACGCTGTCAATCGCGCCGACACTATACTGGCCCGCATGACCTAGGCTAGC
binding signal [3]: 3.33 PBM z-score against 500 random probes
binding signal [1]: 3.04 PBM z-score against 500 random probes

B16: NRC3_random_hg19_34_o1 (dsDNA)
DNA 1: GCATGATGCCTCCTTGGAGAAGTCCTGCATTCATCCGCGATTGACAGCGTAGAATGAAGG
DNA 2: CCTTCATTCTACGCTGTCAATCGCGGATGAATGCAGGACTTCTCCAAGGAGGCATCATGC
binding signal [1]: -0.46 PBM z-score against 500 random probes

B17: NRC3_random_hg19_160_o1 (dsDNA)
DNA 1: GCATCCCTGCAATGGCCTGCAAAGTTACAGGTTGCAGCGATTGACAGCGTAGAATGAAGG
DNA 2: CCTTCATTCTACGCTGTCAATCGCTGCAACCTGTAACTTTGCAGGCCATTGCAGGGATGC
binding signal [1]: -0.41 PBM z-score against 500 random probes

B18: NRC3_random_hg19_89_o1 (dsDNA)
DNA 1: GCCAAGATGAATCAGAAGCATGCCATCCGAATTCCAGCGATTGACAGCGTAGAATGAAGG
DNA 2: CCTTCATTCTACGCTGTCAATCGCTGGAATTCGGATGGCATGCTTCTGATTCATCTTGGC
binding signal [1]: -0 PBM z-score against 500 random probes

B19: NRC3_random_hg19_498_o1 (dsDNA)
DNA 1: GCGACCACAGGTATAGTGTGCTGGACTATGTTCCAGGCGATTGACAGCGTAGAATGAAGG
DNA 2: CCTTCATTCTACGCTGTCAATCGCCTGGAACATAGTCCAGCACACTATACCTGTGGTCGC
binding signal [1]: -0.31 PBM z-score against 500 random probes

B20: NRC3_random_hg19_79_o1 (dsDNA)
DNA 1: GCCAGTGTCCTCCTGAGAATTGGTTGTGTTGGGCAGGCGATTGACAGCGTAGAATGAAGG
DNA 2: CCTTCATTCTACGCTGTCAATCGCCTGCCCAACACAACCAATTCTCAGGAGGACACTGGC
binding signal [1]: -0.79 PBM z-score against 500 random probes

B21: NRC3_random_hg19_375_o1 (dsDNA)
DNA 1: GCCAGAAGAGGAGAAGACACATAAGAAGAGGAAGTCGCGATTGACAGCGTAGAATGAAGG
DNA 2: CCTTCATTCTACGCTGTCAATCGCGACTTCCTCTTCTTATGTGTCTTCTCCTCTTCTGGC
binding signal [4]: 0.5 PBM z-score against 500 random probes
binding signal [1]: 0.13 PBM z-score against 500 random probes

B22: NRC3_wobSeed76_DR3_C22A_o1 (dsDNA)
DNA 1: GCCCTACTGGGCCAAAAAGGTAATTGATGCCGATAAGCGATTGACAGCGTAGAATGAAGG
DNA 2: CCTTCATTCTACGCTGTCAATCGCTTATCGGCATCAATTACCTTTTTGGCCCAGTAGGGC
binding signal [1]: 0.01 PBM z-score against 500 random probes

B23: NRC3_random_hg19_376_o1 (dsDNA)
DNA 1: GCTTCCTCTTCCTCTGTGCCTGTGTAGCCTCCATCCGCGATTGACAGCGTAGAATGAAGG
DNA 2: CCTTCATTCTACGCTGTCAATCGCGGATGGAGGCTACACAGGCACAGAGGAAGAGGAAGC
binding signal [1]: -0.77 PBM z-score against 500 random probes
